Reference: article PMC11154709, “4S-fluorination of ProB29 in insulin lispro slows fibril formation” (The Journal of Biological Chemistry, 2024)
“Also recorded” adds a separate entry of the source.

Key:
Format in all cases: physicochemical
[1] = test system: zinc- and resorcinol-bound hexamer; assay: Hexamer dissociation kinetics by CD after dilution; settings: 250 μM ZnCl2, 25 mM resorcinol; for Hexamer dissociation t1/2: 600 μM insulin or lispro, 25 mM tris pH 8.0, 150-fold dilution, 25 °C, ellipticity at 222 nm over 120 s, at least two separate HPLC fractions, different days
Description: We measured the half-life (t1/2) for dissociation of the hexamer form of each lispro variant by monitoring the change in negative ellipticity at 222 nm over time after dilution (Figs. 3A, S4, and S5). Insulin and lispro variants were formulated to mimic the pharmaceutical formulation (600 μM insulin, 25 mM resorcinol, 250 μM ZnCl2); resorcinol was used as the phenolic ligand to slow dissociation ([30]). […] Monitoring dissociation processes faster than that of lispro is limited by the mixing time of this experiment, though comparisons to human insulin can still be made.
Samples were dialyzed overnight against 28.6 mM tris buffer, pH 8.0, then formulated as 600 μM insulin or lispro, 250 μM ZnCl2, 25 mM resorcinol, 25 mM tris, pH 8.0. A 20 μl aliquot of the formulation solution was injected into a stirred buffer solution containing 2.98 ml of 25 mM tris, pH 8.0 (150-fold dilution) at 25 °C. Ellipticity was monitored over 120 s at 222 nm. A typical run led to a rapid drop in CD signal as mixing occurred (∼5 s), then a gradual rise to an ellipticity representative of an insulin monomer. Data preceding the timepoint with the greatest negative ellipticity represented the mixing time and were omitted from further analysis. […] Dissociation data were fit to a mono-exponential function using Scipy (Python). The data presented here are from at least two separate HPLC fractions, measured on different days. […]
Circular dichroism spectroscopy: […]
Kinetic measurements: Insulin or lispro samples in 100 mM sodium phosphate buffer pH 8.0 were dialyzed overnight against 28.6 mM tris buffer, pH 8.0 (Slide -A-Lyzer dialysis cassettes, 3.5 kDa MWCO, ThermoFisher). Samples were formulated as follows: 600 µM lispro, 250 µM ZnCl 2, 25 mM resorcinol, 25 mM tris buffer, pH 8. A 20 µL volume of the insulin formulation was injected into a stirred buffer solution containing 2.98 mL of 25 mM tris, pH 8.0 in a 10 mm quartz cuvette (150-fold dilution). Ellipticity was m onitored at 222 nm over 120 s (1 s kinetic interval, 0.5 s time constant) at 25°C. A typical run led to a rapid drop in CD signal as mixing occurred (~5 s), then a gradual rise to an equilibrium ellipticity representative of an insulin monomer. Data preceding […]
omitted from further analysis. Runs were discarded if the maximum change in mean residue […]
remaining data were fit to a mono -exponential function using Scipy (Python); data presented here are from at least two separate HPLC fractions, measured on two different days.
An equilibrium spectrum for each protein was obtained after dilution; all spectra were indicative of an insulin monomer (Figure S3). The CD spectrum of lispro under pre -dilution formulation conditions was obtained using a 0.1 mm quartz cuvette. […]

[2] = Fibrillation (thioflavin T), shaking at 37 °C; settings: 60 μM in 100 mM sodium phosphate, pH 8.0, 37 °C; for Fibrillation lag time: shaking 960 rpm, 1 μM ThT (444/485 nm), lag time = x-intercept, two HPLC fractions, each in triplicate or quadruplicate, two days; for fibrillation: vigorous shaking, ThT
Description: Each insulin lispro variant was subjected to continuous, vigorous shaking at 37 °C to assess its stability against physical denaturation; fibrillation was monitored with the dye thioflavin T, (Fig. 4A).
(§1) Figure 4 Fibrillation of lispro variants.A, lispro variants (60 μM in 100 mM phosphate buffer, pH 8.0) were incubated at 37 °C with vigorous shaking; fibril formation was monitored by ThT fluorescence. Fibrillation runs were performed on two separate HPLC fractions, each in triplicate or quadruplicate, on two separate days. B–E, TEM images of lispro (B), KP-4R-F (C), KP-4S-F (D), and KP-44-diF (E) aggregates. F, ANS emission spectra of lispro variants (1 μM lispro variant labeled with 5 μM ANS in 100 mM phosphate buffer, pH 8.0). The data presented here indicate the mean ± SD for each variant from measurements of three separate HPLC fractions. 44-diF, 4,4-difluoroproline; 4R-F, 4R-fluoroproline; 4S-F, 4S-fluoroproline; ThT, thioflavin T.
Lispro samples (60 μM in 100 mM sodium phosphate buffer, pH 8.0) were centrifuged (22,000g, 1 h, 4 °C); 1 μM thioflavin T was then added. Each lispro variant was shaken continuously in a 96-well, black, clear bottom plate at 37 °C, and fluorescence (444 nm excitation, 485 nm emission) was monitored over time. Fibrillation runs were performed on two separate HPLC fractions, each in triplicate or quadruplicate, on two separate days. The growth phase of each replicate was fit to a linear function; lag times were reported as the x-intercept. […]
Lispro samples (60 µM in 100 mM sodium phosphate, pH 8.0) were centrifuged at 22,000 g for 1 h at 4°C, before 1 µM thioflavin T (ThT) was added. Each lispro (200 µL) was added to a 96 -well, black, clear bottom plate (Greiner Bio -One) and sealed. Samples were shaken continuously at 960 rpm on a Varioskan multimode plate reader at 37°C, and fluorescence readings were recorded every 15 min (444 nm excitation, 485 nm em ission). Fibrillation runs were performed on at least two separate HPLC fractions, each in triplicate or quadruplicate, and on two different days. The growth phase of each fibrillation replicate was fit to a linear function; f ibrillation lag times were reported as the x-intercept of this fit. Fibril samples were stored at 4°C until analysis by transmission electron microscopy (TEM).
(§2) Transmission electron microscopy: […]

[3] = ANS fluorescence (conformational disorder); settings: 1 μM lispro variant, 5 μM ANS, 100 mM phosphate, pH 8.0, ambient temperature, 350 nm excitation; mean ± SD, three separate HPLC fractions
Description: as §1, with “T. […]” for “T.”
Lispro variants (1 μM) were mixed with 5 μM ANS in 100 mM phosphate buffer, pH 8.0. Fluorescence emission spectra were measured at ambient temperature (350 nm excitation). Measurements for each lispro were performed in triplicate from three separate HPLC fractions. […]
as §2
Lispro variants (1 µM) were mixed with 5 µM ANS in 100 mM phosphate buffer, pH 8.0.
Fluorescence emission spectra were measured in 1 cm quartz cuvettes at ambient temperature using a PTI QuantaMaster fluorescence spectrofluorometer. A 2 nm s -1 scan rate and 350 nm excitation wavelength were used. Measurements for each variant were performed in triplicate from three separate HPLC fractions.

KP-4S-F: insulin lispro with ProB29 replaced by 4S-fluoroproline
Hexamer dissociation t1/2 [1]: 11.2 ± 3.3 s | Fibrillation lag time [2]: 17.9 ± 0.8 h | fibrillation [2]: stabilized against fibril formation; also recorded: extended lag time to fibril formation | ANS emission maximum [3]: 463 ± 6 nm

KP-44-diF: insulin lispro with ProB29 replaced by 4,4-difluoroproline
Hexamer dissociation t1/2 [1]: 9.9 ± 2.9 s | Fibrillation lag time [2]: 9.0 ± 1.3 h | fibrillation [2]: did not significantly change the fibrillation lag time | ANS emission maximum [3]: 462 ± 5 nm

KP-4R-F: insulin lispro with ProB29 replaced by 4R-fluoroproline
Hexamer dissociation t1/2 [1]: 10.2 ± 1.6 s | Fibrillation lag time [2]: 10.3 ± 2.4 h | fibrillation [2]: did not significantly change the fibrillation lag time | ANS emission maximum [3]: 464 ± 4 nm

insulin lispro: fast-acting insulin with inversion of the residues ProB28 and LysB29; Humalog, Eli Lilly [reference compound]
hexamer dissociation ([1]; 600 μM protein, 150-fold dilution, pH 8.0, 25 °C, CD 222 nm): dissociated significantly more rapidly than human insulin | Fibrillation lag time [2]: 10.9 ± 2.2 h | ANS emission maximum [3]: 466 ± 2 nm
